Laboratory results published in the supplement of paper PMC9170038.

System: MS2 coat protein
Test: apparent KD of MS2 coat protein; higher = weaker reporter binding
Details: Eterna round: R107; input ligand: theophylline 20 uM
Procedure, shortened: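 Normalised binding curves from single clusters were fitted, and the median fit for each design is given as apparent KD. The clusters held designed RNA switches transcribed on-chip from Illumina sequencing clusters. These were titrated with SNAP-549-labelled MS2 coat protein (twofold steps from 0.7 or 1.5 nM to 3 µM, 0.8–1.5 h to 10–20 min per step) in 100 mM Tris-HCl pH 7.5, 80 mM KCl, 4 mM MgCl2, without or with constant ligand.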

Sequence	apparent KD of MS2 coat protein
ACCUCACUCUCUGAUACCAGCUAACAACAUGAGGAUCACCCAUGUCAGACUUGUAUUGAUAGCCCUUGGCAGCAGAGGUAACUGC [#16 Exclusion-TheophyllineB]	21.2 nM
AAACGCCACGGAAGGAGCGACAUGAGGAUCACCCAUGUAGACGUGGCGGAUGCACCCUCCUGUCAGGUAGGUCGCCGUGCGCCAA [Engebite]	15.5 nM
AUAAGCUGUACCGGAAUAUCCUCAUGUAUACGAGGACCGGUACGGCCGCCACUCGAUAACAUGAGGAUCACCCAUGUAAUAAUAA [|T'-M'-Trp-Ms2|_Design20]	15.4 nM
CAAAAUUUAACGGCCGCCACUUACUCAUGAGGUAACAACAUGAGGAUCACCCAUGUUUGAGGAUCAAGGACCGGGUUAAAUUUUG [AstrosSSTry#20]	33.9 nM
GUUGGUUUGCGAAGGAGCGGGUAUGUUGUCUACUGGAUCCUAACAUGAGGAUCACCCAUGUCCCAGGUAGGUCGCGCGGGCUUUG [12.aB]	56.3 nM
CUACAUUUGUAGAAACCGGUCAACAUUAUUCGAGGACCGGUACGGCCGCCACUCGUAUAUUUUUAUACAUGAGGAUCACCCAUGU [Tryptophan A 7]	14.4 nM
GGGCCUGUAGGCAGGCCCACAGCGGGUGAUACCAGCAAUAAAACUUGCCCUUGGCAGCACACAGCUACAUGAGGAUCACCCAUGU [Ismaorxe]	99.3 nM
AUGGUCGACGAUCUGCGAAAAGCAGAUCGACGAGGACCGGUACGGCCGCCACUCGUGUUUAUUUAACAUGAGGAUCACCCAUGUA [#14Tryptophan A Same State]	123 nM
GUCUCUGAGAGAAGGAGCGUGAAGACAUGAGGAUCACCCAUGUAGAGGCGCCGACGGCGUUCGCAGGUAGGUCGCUCUCAGAGAC [#1 Same State - Arginine B Attempt #19 (HarryS)]	35 nM
GGCACAUAGUCGGCCGCCACUAGGCUGUAGUGGGAGGACAUGAGGAUCACCCAUGUAUUUGGUACUAGGACCGGGACUAUGUGCC [Lion]	259 nM
CUCAUCCACGCGGCCGCCACUAUUUUUAGGUGUGGGUGUGACGUAUUACAUGAGGAUCACCCAUGUAGGACCGGGCGUGGAUGAG [Walrus]	414 nM
UGGCGAGAAGGAAGGAGCGUCAGCUGAGUCACAUGAGGAUCACCCAUGUAGCACAUAGUGUGACAGGUAGGUCGCCUUCUGCCCU [SS-ArgB17]	15.4 nM
UAGACGGCCGGAAGGAGCGGUACAUGAGGAUCACCCAUGUACCUCUGGGCAUCCGUAGUGUGCCAGGUAGGUCGCCGGUUGCGGG [Tebecela]	12.5 nM
AGAUCGCUGACCGCGGGAGAUGCGCAGGAUACCAGCCUAAUGUCCGGCCCUUGGCAGCCUGUAACAUGAGGAUCACCCAUGUGAA [theeternabot_exclusion_MS2_Theo_A_29]	20.9 nM
AGUCUUAUAGGAAGGAGCGCAUACUUCACAUGAGGAUCACCCAUGUCAAGACGUGAGUCAAUGCAGGUAGGUCGCCUAACUAAGA [Same State - Arginine B (Freestyle 12)]	20.4 nM
GGACUAACCAGAAGGAGCGGCGCGCAGAAACUGCAAAUUCCUCCGCACGAGGAUCACCCGUGUCAGGUAGGUCGCUGGUUAGUCG [ArgBX 28]	17.9 nM
AAGGCUACGACCGAUACCAGUAGACGGCAUUCGUAGGAGAACAUGAGGAUCACCCAUGUCUACCCUUGGCAGCGGAAAAUACACU [theeternabot_exclusion_MS2_Theo_B_16]	17.4 nM
CGGUAUGGGACGGCCGCCACUAUUAUGUAACAAAAUAAACAUGAGGAUCACCCAUGUACAUGGGAUAGGACCGGGUCCUAUAGCG [#23 Same State - Tryptophan B]	70.9 nM
AAUAACAUGAGGAUCACCCAUGUAAAAGAUACCAGAUGCAUGAUGAUCCCUUGGCAGCUUAAACGCGAUUGGAAACAAUCGCGAA [Mat - Same State Theophlline A - Mod of Eli - D11]	40 nM

Same assay, conditions: Eterna round: R107; input ligand: theophylline 2 mM

Sequence	apparent KD of MS2 coat protein
ACCUGCGUUUGAUAAAAUCAGACGCAGGUUCGAGGACCGGUACGGCCGCCACUCGGACAUGAGGAUCACCCAUGUUUGACAUGGG [#05 Exclusion Tryptophan A]	746 nM
GCACAAGAUGGAAGGAGCGCUGGUAGGUGACACAUGAGGAUCACCCAUGUGCUCCUUGCCGAGCAGGUAGGUCGCCAUCUUGUGC [SSAB NP+V+V2 #7]	36.1 nM
UGCCUAGACGUGGAUUACCCGUGUACCGAAGGAGCGCCCGAAAGGGCAGGUAGGUCGCGGAGGACAUGAGGAUCACCCAUGUUUA	431 nM
AUAACUGUAAUAAACCGCAGGCUAGUGGAAGGAGCGCGGAAUAACGCAGGUAGGUCGCCACAAACUUGAGGAUCACCCAGGUGGC [SSAA NP+V+V2 #7 Diff Apt]	57.7 nM
AAAAUCCUACCUGAGGAUCACCCUGGUGAAGGAGCGCCCGAAAGGGCAGGUAGGUCGCACCUGAGGAUCACCCUGGUAAACCUAA [ArgEX 24 #DoubleMS2 #OpenEnded]	44.9 nM
CGGGUUCGGGCGGCCGCCACUAUGAUUAGGUGUGGGUGUGUUGUGUUACAUGAGGAUCACCCAUGUAGGACCGGGUUUGGGCUUG [Sturgeon]	28.3 nM
GCUAGGUCAUCGGCCGCCACUAACGAUGGCUCCGACAUGAGGAUCACCCAUGUGCCACAUGCGCAUAGGACCGGGAUGACCUAGC [SSTB NP+V+V2 #2]	19.8 nM
CUAUAAGUAGCGGCCGCCACUUACUCAUGAGGUAACAACAUGAGGAUCACCCAUGUUUGAGGAUCAAGGACCGGGCUAUUUAUAG [AstrosSSTryB#9]	31.5 nM
AUUCAUGGAAACAUGACAUACAUAACCGGUCGAGGACCGGUACGGCCGCCACUCGGUUGGUGGCACAUGAGGAUCACCCAUGUUA [SS Tryp A #10]	28.5 nM
GGCACAUAGUCGGCCGCCACUAGUGGGAAAUGGGAGAACAUGAGGAUCACCCAUGUUGCGUAGCCUAGGACCGGGACUAUGUGCC [Hippopotamus]	33.2 nM
UCGGGCAGAGCGGCCGCCACUGUUUGGCAUGCGGAUGAAGGAACAUGAGGAUCACCCAUGUAGAUUAGGACCGGGCUUUCGGAGA [cctchmullin]	25.5 nM
UGUAUGUGAUCUGAUACCAGCUAGCGGAAACGCAGCUUGAGGAUCACCCAAGUGGAAAUAAGCCCUUGGCAGCAGAUCGCAUACU [Denovo 6 #StaticStem #AlternativeMS2]	11.9 nM
AUAGUUAUCAGAAGGAGCGUCAUUAACAUGAGGAUCACCCAUGUAACAUUGAAUUCGAUGAGACAGGUAGGUCGCUGAAUAUUAA [SS-ArgB28]	41.7 nM
UAUGUGAUAGUCGUACUCUCACACUGAGAAGGAGCGCGAUAGUUCGCAGGUAGGUCGCUCAGUUAUACAUGAGGAUCACCCAUGU [Isrice]	32.4 nM
AGAAUAUAGUCGGCCGCCACUCUACAUACAUGAGGAUCACCCAUGUUUACAUAGUGAAUAUACAUGAGGACCGGGACAUAGGCAU [JR_SSTryptoB_Sub020]	23.7 nM
AAACGCCACGGAAGGAGCGACAUGAGGAUCACCCAUGUAGACGUGGCGGAUGCACCCUCCUGUCAGGUAGGUCGCCGUGCGCCAA [Engebite]	12.2 nM
AUAAGCUGUACCGGAAUAUCCUCAUGUAUACGAGGACCGGUACGGCCGCCACUCGAUAACAUGAGGAUCACCCAUGUAAUAAUAA [|T'-M'-Trp-Ms2|_Design20]	14.5 nM
CAAAAUUUAACGGCCGCCACUUACUCAUGAGGUAACAACAUGAGGAUCACCCAUGUUUGAGGAUCAAGGACCGGGUUAAAUUUUG [AstrosSSTry#20]	30.7 nM
GUUGGUUUGCGAAGGAGCGGGUAUGUUGUCUACUGGAUCCUAACAUGAGGAUCACCCAUGUCCCAGGUAGGUCGCGCGGGCUUUG [12.aB]	52.2 nM
